Data reported in patent US20240174727A1, “LONG-ACTING NATRIURETIC PEPTIDES AND USES THEREOF” (Eli Lilly and Company, priority 2022, published 2024).
Numbered stars: 1 amine (or outer) side, 2 acyl side, 3 side chain; on linkers, the order of the positions; unused ones are H or OH. Bridge positions count the residues as written; N and C are the ends. Square brackets hold non-standard residues; d marks the D form. * marks the point of attachment. C20 diacid = O=C(O)CCCCCCCCCCCCCCCCCCC(=O)*; γGlu = O=C(O)[C@H](CCC(=O)[*:2])N[*:1]; 4Pal = N[C@@H](Cc1ccncc1)C(=O)O

T1: human NPRA (human, UniProt P16066 33-1061)
T1 sequence (looked up): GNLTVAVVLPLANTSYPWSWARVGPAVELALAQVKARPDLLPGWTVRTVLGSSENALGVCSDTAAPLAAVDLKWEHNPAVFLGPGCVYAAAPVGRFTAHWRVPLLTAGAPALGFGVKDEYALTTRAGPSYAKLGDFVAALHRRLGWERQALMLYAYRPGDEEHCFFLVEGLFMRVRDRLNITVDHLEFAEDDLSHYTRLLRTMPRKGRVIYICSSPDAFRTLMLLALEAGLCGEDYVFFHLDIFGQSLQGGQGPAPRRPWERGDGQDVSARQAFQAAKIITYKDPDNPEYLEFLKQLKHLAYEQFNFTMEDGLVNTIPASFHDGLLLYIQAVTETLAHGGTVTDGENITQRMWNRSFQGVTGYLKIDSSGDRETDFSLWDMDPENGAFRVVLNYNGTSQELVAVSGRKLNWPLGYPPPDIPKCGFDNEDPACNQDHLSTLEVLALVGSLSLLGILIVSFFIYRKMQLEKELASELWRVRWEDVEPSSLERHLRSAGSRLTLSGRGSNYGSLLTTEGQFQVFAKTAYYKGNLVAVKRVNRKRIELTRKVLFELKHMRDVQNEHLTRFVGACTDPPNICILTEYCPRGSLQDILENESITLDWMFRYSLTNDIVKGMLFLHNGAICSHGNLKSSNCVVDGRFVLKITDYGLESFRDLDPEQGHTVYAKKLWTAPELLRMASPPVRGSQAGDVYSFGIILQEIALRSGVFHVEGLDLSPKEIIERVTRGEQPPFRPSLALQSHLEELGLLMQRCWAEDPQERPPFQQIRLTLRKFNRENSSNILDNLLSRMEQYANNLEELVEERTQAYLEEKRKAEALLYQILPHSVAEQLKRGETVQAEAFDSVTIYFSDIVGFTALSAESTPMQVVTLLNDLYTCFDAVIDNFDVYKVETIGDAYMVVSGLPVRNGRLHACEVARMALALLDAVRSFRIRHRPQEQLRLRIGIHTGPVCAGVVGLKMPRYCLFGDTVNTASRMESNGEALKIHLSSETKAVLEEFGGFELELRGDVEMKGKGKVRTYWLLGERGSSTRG

T2: rat NPRA (rat, UniProt P18910 29-1057)
T2 sequence (looked up): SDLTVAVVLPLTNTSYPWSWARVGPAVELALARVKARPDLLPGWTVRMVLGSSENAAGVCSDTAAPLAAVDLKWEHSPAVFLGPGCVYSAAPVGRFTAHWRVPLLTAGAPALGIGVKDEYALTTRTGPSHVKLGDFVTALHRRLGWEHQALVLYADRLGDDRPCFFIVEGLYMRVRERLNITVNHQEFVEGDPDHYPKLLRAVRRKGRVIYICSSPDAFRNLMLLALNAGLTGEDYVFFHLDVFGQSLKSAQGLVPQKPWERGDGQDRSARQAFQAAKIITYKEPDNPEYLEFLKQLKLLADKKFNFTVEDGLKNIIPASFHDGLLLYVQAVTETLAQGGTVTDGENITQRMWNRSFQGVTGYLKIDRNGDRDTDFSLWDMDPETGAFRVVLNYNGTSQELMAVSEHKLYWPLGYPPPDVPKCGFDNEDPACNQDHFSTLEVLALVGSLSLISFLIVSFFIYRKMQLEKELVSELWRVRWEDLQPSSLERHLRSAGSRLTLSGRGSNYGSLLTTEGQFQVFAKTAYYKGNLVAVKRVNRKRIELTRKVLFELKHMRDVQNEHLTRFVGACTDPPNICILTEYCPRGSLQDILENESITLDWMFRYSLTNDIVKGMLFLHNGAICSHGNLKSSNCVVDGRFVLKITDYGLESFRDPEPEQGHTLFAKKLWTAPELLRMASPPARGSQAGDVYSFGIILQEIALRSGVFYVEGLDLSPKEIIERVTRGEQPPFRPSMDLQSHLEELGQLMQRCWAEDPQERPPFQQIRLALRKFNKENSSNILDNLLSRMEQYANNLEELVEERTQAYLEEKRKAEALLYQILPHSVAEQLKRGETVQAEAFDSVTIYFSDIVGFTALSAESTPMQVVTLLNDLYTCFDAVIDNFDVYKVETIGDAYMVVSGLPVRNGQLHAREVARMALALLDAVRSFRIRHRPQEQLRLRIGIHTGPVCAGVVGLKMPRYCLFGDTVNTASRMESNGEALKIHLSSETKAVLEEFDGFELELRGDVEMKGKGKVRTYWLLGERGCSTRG

T3: rat NPRA (rat, UniProt P18910 29-1057)
T3 sequence (looked up): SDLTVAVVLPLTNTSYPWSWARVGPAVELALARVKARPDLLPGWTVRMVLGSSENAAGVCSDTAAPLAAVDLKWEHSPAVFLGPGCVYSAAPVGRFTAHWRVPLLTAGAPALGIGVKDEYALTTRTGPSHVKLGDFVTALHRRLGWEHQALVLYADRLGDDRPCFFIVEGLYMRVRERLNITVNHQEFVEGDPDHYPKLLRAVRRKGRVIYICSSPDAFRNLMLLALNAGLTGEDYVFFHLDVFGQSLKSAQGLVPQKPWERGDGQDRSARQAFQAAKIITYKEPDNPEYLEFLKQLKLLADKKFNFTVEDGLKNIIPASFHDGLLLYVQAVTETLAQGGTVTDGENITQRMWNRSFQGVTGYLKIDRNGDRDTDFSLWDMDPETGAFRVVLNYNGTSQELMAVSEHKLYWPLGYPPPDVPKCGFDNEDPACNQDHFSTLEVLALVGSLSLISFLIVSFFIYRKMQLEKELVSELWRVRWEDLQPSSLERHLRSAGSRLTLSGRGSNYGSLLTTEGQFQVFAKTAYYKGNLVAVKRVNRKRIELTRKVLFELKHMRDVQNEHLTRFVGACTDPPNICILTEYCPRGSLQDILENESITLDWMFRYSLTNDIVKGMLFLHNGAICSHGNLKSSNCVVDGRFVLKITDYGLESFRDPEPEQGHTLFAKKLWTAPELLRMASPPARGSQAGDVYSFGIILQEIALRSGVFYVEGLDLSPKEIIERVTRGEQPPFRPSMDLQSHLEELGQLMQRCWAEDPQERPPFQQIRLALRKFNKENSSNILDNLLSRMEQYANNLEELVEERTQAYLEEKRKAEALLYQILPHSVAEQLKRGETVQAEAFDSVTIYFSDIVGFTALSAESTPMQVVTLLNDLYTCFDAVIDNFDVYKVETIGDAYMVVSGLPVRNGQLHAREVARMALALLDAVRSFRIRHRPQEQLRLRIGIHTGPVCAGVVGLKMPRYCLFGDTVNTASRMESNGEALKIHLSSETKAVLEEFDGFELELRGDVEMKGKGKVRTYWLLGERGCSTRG


Experiments:
Test in all cases: cell-based or functional assay
[1] = molecular target: T1, human NPRA
[2] = molecular target: T2, rat NPRA
[3] = molecular target: T3, rat NPRA; remark: listed apart in the source

| Binder | cGMP Assay (EC50, pM) w/BSA [1] [pM] | cGMP Assay (EC50, pM) w/Casein [1] [pM] | cGMP Assay (EC50, pM) w/BSA [2] [pM] | cGMP Assay (EC50, pM) w/Casein [2] [pM] | cGMP Assay (EC50, pM) w/Casein, rNPRA [3] [pM] |
| --- | --- | --- | --- | --- | --- |
| {C20 diacid}-[γGlu]EKEKEKGSHRRSSCFHGRIDRIHAQSGLGCNSFRH-NH2 (disulfide 15-31; SMILES CC[C@H](C)[C@@H]1NC(=O)[C@H](CCCNC(=N)N)NC(=O)[C@H](CC(=O)O)NC(=O)[C@H]([C@@H](C)CC)NC(=O)[C@H](CCCNC(=N)N)NC(=O)CNC(=O)[C@H](Cc2c[nH]cn2)NC(=O)[C@H](Cc2ccccc2)NC(=O)[C@@H](NC(=O)[C@H](CO)NC(=O)[C@H](CO)NC(=O)[C@H](CCCNC(=N)N)NC(=O)[C@H](CCCNC(=N)N)NC(=O)[C@H](Cc2c[nH]cn2)NC(=O)[C@H](CO)NC(=O)CNC(=O)[C@H](CCCCN)NC(=O)[C@H](CCC(=O)O)NC(=O)[C@H](CCCCN)NC(=O)[C@H](CCC(=O)O)NC(=O)[C@H](CCCCN)NC(=O)[C@H](CCC(=O)O)NC(=O)CC[C@H](NC(=O)CCCCCCCCCCCCCCCCCCC(=O)O)C(=O)O)CSSC[C@@H](C(=O)N[C@@H](CC(N)=O)C(=O)N[C@@H](CO)C(=O)N[C@@H](Cc2ccccc2)C(=O)N[C@@H](CCCNC(=N)N)C(=O)N[C@@H](Cc2c[nH]cn2)C(N)=O)NC(=O)CNC(=O)[C@H](CC(C)C)NC(=O)CNC(=O)[C@H](CO)NC(=O)[C@H](CCC(N)=O)NC(=O)[C@H](C)NC(=O)[C@H](Cc2c[nH]cn2)NC1=O) [Example 16] | 54700 | 807 | 480000 | 4070 | – |
| {C20 diacid}-[γGlu]EKEKEKGSHRRSSCFGGRIDRIGAQSGLGCPSFRH-NH2 (disulfide 15-31; SMILES CC[C@H](C)[C@@H]1NC(=O)[C@H](CCCNC(=N)N)NC(=O)[C@H](CC(=O)O)NC(=O)[C@H]([C@@H](C)CC)NC(=O)[C@H](CCCNC(=N)N)NC(=O)CNC(=O)CNC(=O)[C@H](Cc2ccccc2)NC(=O)[C@@H](NC(=O)[C@H](CO)NC(=O)[C@H](CO)NC(=O)[C@H](CCCNC(=N)N)NC(=O)[C@H](CCCNC(=N)N)NC(=O)[C@H](Cc2c[nH]cn2)NC(=O)[C@H](CO)NC(=O)CNC(=O)[C@H](CCCCN)NC(=O)[C@H](CCC(=O)O)NC(=O)[C@H](CCCCN)NC(=O)[C@H](CCC(=O)O)NC(=O)[C@H](CCCCN)NC(=O)[C@H](CCC(=O)O)NC(=O)CC[C@H](NC(=O)CCCCCCCCCCCCCCCCCCC(=O)O)C(=O)O)CSSC[C@@H](C(=O)N2CCC[C@H]2C(=O)N[C@@H](CO)C(=O)N[C@@H](Cc2ccccc2)C(=O)N[C@@H](CCCNC(=N)N)C(=O)N[C@@H](Cc2c[nH]cn2)C(N)=O)NC(=O)CNC(=O)[C@H](CC(C)C)NC(=O)CNC(=O)[C@H](CO)NC(=O)[C@H](CCC(N)=O)NC(=O)[C@H](C)NC(=O)CNC1=O) [Example 18] | 17100 | 460 | 43200 | 693 | – |
| {C20 diacid}-[γGlu]EKEKEKGS[4Pal]RRSSCFGGRIDRIGAQSGLGCPSFR[4Pal]-NH2 (disulfide 15-31; SMILES CC[C@H](C)[C@@H]1NC(=O)[C@H](CCCNC(=N)N)NC(=O)[C@H](CC(=O)O)NC(=O)[C@H]([C@@H](C)CC)NC(=O)[C@H](CCCNC(=N)N)NC(=O)CNC(=O)CNC(=O)[C@H](Cc2ccccc2)NC(=O)[C@@H](NC(=O)[C@H](CO)NC(=O)[C@H](CO)NC(=O)[C@H](CCCNC(=N)N)NC(=O)[C@H](CCCNC(=N)N)NC(=O)[C@H](Cc2ccncc2)NC(=O)[C@H](CO)NC(=O)CNC(=O)[C@H](CCCCN)NC(=O)[C@H](CCC(=O)O)NC(=O)[C@H](CCCCN)NC(=O)[C@H](CCC(=O)O)NC(=O)[C@H](CCCCN)NC(=O)[C@H](CCC(=O)O)NC(=O)CC[C@H](NC(=O)CCCCCCCCCCCCCCCCCCC(=O)O)C(=O)O)CSSC[C@@H](C(=O)N2CCC[C@H]2C(=O)N[C@@H](CO)C(=O)N[C@@H](Cc2ccccc2)C(=O)N[C@@H](CCCNC(=N)N)C(=O)N[C@@H](Cc2ccncc2)C(N)=O)NC(=O)CNC(=O)[C@H](CC(C)C)NC(=O)CNC(=O)[C@H](CO)NC(=O)[C@H](CCC(N)=O)NC(=O)[C@H](C)NC(=O)CNC1=O) [Example 20] | 129000 | 2900 | 104000 | 1390 | – |
| {C20 diacid}-[γGlu]EKEKEKGS[4Pal]RRSSCFGGRIDRIGAQSGLGCNSFR[4Pal]-NH2 (disulfide 15-31; SMILES CC[C@H](C)[C@@H]1NC(=O)[C@H](CCCNC(=N)N)NC(=O)[C@H](CC(=O)O)NC(=O)[C@H]([C@@H](C)CC)NC(=O)[C@H](CCCNC(=N)N)NC(=O)CNC(=O)CNC(=O)[C@H](Cc2ccccc2)NC(=O)[C@@H](NC(=O)[C@H](CO)NC(=O)[C@H](CO)NC(=O)[C@H](CCCNC(=N)N)NC(=O)[C@H](CCCNC(=N)N)NC(=O)[C@H](Cc2ccncc2)NC(=O)[C@H](CO)NC(=O)CNC(=O)[C@H](CCCCN)NC(=O)[C@H](CCC(=O)O)NC(=O)[C@H](CCCCN)NC(=O)[C@H](CCC(=O)O)NC(=O)[C@H](CCCCN)NC(=O)[C@H](CCC(=O)O)NC(=O)CC[C@H](NC(=O)CCCCCCCCCCCCCCCCCCC(=O)O)C(=O)O)CSSC[C@@H](C(=O)N[C@@H](CC(N)=O)C(=O)N[C@@H](CO)C(=O)N[C@@H](Cc2ccccc2)C(=O)N[C@@H](CCCNC(=N)N)C(=O)N[C@@H](Cc2ccncc2)C(N)=O)NC(=O)CNC(=O)[C@H](CC(C)C)NC(=O)CNC(=O)[C@H](CO)NC(=O)[C@H](CCC(N)=O)NC(=O)[C@H](C)NC(=O)CNC1=O) [Example 15] | 57300 | 912 | 32600 | 254 | – |
| XEKEKEKGEKPRSSCFGKRIDRIGXQSGLGCPSFRHGSPSSGAPPPS (N-terminus acylated with HOOC-(CH2)18-CO-(γGlu)-; Orn; thioacetal linkage between the two bracketed Cys; C-terminal amide) [HOOC-(CH2)18-CO-(γGlu)-EKEKEKGEKPRSS[CFGKRIDRIG-Orn-QSGLGC]PSFRHGSPSSGAPPPS-NH2] | – | – | – | – | 192000 |
